From patent US20140010832A1

Columns and labels:
Experiment in all cases: ELISA; cytokine coated, ECM protein 0.02 to 320 nM, KD by non-linear fit
Tenascin C = target: Tenascin C
Osteopontin = target: Osteopontin
Fibronectin = target: Fibronectin
Fibrinogen = target: Fibrinogen
Vitronectin = target: Vitronectin
Vitronectin, sequence (P04004 20-478): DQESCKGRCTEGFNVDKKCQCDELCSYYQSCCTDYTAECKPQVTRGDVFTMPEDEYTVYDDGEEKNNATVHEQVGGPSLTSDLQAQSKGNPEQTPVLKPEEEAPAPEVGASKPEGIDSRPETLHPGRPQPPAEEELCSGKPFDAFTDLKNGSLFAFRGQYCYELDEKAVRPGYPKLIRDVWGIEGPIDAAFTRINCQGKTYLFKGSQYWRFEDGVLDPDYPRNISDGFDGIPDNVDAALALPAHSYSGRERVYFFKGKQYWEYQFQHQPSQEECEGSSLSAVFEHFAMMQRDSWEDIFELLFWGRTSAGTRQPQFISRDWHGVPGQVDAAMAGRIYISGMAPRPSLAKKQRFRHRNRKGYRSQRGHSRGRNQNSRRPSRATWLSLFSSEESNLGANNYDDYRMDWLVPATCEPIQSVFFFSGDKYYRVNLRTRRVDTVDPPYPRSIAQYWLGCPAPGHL

Tenascin C, sequence (P24821 23-2201): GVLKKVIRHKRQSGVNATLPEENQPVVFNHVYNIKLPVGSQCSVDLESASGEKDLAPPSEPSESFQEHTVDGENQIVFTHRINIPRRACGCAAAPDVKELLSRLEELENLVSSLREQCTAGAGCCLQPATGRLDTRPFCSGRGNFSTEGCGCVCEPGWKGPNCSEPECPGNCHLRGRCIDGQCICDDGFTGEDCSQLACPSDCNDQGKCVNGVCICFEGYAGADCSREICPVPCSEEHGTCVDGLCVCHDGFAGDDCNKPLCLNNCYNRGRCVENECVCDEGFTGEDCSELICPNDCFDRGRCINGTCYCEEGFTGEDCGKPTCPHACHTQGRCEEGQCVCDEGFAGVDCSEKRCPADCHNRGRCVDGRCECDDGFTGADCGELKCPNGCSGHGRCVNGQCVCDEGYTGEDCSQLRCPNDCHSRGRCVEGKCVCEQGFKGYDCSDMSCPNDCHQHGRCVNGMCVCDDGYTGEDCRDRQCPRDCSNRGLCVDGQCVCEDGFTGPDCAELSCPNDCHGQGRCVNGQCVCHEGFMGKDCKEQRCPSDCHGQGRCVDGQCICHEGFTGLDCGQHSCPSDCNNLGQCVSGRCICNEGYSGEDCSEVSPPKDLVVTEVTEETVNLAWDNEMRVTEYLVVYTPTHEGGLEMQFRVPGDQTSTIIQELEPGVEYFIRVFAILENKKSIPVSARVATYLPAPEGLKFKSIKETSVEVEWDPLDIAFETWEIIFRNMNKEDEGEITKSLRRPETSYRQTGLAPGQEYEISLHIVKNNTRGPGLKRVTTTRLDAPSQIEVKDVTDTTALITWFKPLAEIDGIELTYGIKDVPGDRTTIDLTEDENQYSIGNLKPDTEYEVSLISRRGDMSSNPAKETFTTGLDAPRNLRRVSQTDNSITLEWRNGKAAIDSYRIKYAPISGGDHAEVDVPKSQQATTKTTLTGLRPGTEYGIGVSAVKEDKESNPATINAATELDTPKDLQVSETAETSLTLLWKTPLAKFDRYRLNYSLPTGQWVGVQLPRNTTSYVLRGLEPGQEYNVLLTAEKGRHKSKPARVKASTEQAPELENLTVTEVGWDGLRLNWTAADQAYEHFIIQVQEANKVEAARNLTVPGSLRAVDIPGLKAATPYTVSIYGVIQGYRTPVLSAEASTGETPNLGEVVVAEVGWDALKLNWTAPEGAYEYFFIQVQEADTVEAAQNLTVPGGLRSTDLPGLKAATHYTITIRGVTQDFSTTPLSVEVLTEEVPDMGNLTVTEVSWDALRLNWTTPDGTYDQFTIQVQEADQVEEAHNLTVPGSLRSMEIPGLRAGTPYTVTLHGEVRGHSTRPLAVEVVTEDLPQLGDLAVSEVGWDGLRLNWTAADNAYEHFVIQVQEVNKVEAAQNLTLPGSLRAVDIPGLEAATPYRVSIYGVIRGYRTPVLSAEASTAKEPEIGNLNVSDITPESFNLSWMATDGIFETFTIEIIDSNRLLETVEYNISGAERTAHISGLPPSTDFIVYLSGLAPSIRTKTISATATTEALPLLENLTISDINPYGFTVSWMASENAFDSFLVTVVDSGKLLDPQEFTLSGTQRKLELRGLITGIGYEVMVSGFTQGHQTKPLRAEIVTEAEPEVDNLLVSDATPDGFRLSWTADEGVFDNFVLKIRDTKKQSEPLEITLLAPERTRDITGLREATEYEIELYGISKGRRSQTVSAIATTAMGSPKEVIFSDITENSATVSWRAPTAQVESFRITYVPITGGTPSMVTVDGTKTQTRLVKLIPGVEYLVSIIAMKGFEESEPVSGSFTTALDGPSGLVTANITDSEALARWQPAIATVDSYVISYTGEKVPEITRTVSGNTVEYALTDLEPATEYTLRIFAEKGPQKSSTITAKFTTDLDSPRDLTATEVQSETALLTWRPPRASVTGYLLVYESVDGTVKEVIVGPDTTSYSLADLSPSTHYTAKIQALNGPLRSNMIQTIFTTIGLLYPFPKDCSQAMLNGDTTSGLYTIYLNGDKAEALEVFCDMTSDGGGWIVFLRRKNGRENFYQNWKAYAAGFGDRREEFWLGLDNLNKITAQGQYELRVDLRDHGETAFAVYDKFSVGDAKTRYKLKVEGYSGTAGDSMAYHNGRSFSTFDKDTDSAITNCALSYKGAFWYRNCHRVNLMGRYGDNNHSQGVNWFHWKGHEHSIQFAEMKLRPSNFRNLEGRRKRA
Fibronectin, sequence (P02751 32-2477): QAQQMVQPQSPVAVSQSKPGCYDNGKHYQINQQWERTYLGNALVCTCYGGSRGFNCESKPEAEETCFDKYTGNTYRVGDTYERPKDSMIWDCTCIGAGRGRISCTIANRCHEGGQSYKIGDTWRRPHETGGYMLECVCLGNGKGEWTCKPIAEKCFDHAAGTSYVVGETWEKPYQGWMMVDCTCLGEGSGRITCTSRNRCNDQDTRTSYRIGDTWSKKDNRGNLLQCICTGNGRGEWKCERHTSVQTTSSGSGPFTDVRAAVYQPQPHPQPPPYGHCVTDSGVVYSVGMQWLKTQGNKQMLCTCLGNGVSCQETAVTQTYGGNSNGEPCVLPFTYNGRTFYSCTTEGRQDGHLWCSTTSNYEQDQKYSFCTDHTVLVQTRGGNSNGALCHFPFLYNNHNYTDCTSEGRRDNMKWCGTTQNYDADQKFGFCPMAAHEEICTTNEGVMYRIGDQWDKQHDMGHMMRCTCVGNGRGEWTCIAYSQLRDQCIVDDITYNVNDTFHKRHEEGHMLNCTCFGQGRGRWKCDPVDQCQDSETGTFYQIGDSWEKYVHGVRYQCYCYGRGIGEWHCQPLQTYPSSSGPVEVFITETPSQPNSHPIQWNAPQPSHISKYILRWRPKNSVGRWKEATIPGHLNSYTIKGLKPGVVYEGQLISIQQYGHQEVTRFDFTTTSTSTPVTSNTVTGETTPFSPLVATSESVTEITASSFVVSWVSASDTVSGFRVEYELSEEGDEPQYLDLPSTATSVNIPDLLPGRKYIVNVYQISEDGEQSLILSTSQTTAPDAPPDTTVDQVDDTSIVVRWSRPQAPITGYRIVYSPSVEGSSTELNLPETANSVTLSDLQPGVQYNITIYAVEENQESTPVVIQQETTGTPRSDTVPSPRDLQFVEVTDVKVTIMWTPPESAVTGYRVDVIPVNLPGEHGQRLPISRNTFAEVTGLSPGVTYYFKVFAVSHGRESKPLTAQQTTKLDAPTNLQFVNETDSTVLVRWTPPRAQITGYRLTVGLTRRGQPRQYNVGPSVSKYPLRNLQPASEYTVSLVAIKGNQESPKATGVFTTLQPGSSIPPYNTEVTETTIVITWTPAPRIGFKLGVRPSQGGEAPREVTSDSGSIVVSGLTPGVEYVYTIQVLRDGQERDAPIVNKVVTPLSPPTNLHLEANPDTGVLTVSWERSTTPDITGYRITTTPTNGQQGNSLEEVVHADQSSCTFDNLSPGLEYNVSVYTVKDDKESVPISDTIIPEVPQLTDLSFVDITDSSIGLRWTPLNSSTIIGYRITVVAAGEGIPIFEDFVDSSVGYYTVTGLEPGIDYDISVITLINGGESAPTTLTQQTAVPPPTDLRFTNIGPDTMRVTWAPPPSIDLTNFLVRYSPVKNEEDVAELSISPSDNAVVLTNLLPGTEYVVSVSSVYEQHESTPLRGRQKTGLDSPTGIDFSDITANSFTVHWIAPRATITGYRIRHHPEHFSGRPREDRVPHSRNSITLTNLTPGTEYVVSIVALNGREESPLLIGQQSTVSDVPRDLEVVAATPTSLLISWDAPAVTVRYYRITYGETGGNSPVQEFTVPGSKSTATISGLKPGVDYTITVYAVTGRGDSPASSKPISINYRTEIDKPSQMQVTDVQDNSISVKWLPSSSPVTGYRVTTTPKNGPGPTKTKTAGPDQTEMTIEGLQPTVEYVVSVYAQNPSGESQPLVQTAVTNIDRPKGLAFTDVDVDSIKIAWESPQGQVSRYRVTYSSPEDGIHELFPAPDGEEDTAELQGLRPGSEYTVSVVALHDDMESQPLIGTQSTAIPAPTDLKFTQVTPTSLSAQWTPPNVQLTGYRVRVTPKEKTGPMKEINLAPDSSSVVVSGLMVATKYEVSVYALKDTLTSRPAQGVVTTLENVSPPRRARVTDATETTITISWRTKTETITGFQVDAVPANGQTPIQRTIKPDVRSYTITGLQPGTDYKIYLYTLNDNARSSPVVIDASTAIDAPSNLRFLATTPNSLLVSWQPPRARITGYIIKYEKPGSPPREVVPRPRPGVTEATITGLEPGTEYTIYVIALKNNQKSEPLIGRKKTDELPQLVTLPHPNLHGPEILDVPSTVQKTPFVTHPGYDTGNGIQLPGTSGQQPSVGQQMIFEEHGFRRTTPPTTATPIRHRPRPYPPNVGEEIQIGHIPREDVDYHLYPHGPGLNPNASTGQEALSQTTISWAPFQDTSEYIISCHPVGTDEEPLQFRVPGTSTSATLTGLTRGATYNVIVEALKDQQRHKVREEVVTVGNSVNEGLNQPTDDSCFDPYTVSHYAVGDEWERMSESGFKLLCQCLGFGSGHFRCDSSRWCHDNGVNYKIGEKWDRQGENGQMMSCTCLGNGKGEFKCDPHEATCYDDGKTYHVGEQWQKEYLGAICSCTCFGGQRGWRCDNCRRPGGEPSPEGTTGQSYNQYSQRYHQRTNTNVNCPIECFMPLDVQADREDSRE

Row | Kd (Tenascin C) | Kd (Osteopontin) | Kd (Fibronectin) | Kd (Fibrinogen) | Kd (Vitronectin) | Binder
1 | 6.3 nM | 3.3 nM | 4.5 nM | 3.2 nM | 1.2 nM | human PDGF-BB-PlGF2123-144 (ligand) SLGSLTIAEPAMIAECKTRTEVFEISRRLIDRTNANFLVWPPCVEVQRCSGCCNNRNVQCRPTQVQLRPVQVRKIEIVRKKPIFKKATVTLEDHLACKCETVAAARPVTRRRPKGRGKRRREKQRPTDCHL
2 | 6.9 nM | 11.2 nM | 5.2 nM | 2 nM | 2.4 nM | human BMP-2-PlGF2123-144* (ligand) QAKHKQRKRLKSSCKRHPLYVDFSDVGWNDWIVAPPGYHAFYCHGECPFPLADHLNSTNHAIVQTLVNSVNSKIPKACCVPTELSAISMLYLDENEKVVLKNYQDMVVEGCGCRRRPKGRGKRRREKQRPTDSHL
3 | 25.5 nM |  | 19.2 nM | 47.1 nM | 94.7 nM | human BMP-2 (ligand) QAKHKQRKRLKSSCKRHPLYVDFSDVGWNDWIVAPPGYHAFYCHGECPFPLADHLNSTNHAIVQTLVNSVNSKIPKACCVPTELSAISMLYLDENEKVVLKNYQDMVVEGCGCR
